How the values were obtained:
Assay in all cases: cell-based or functional assay
[1] = target: HIV-1 Env of pseudovirus 6240_08_TA5_4622 (HIV-1)
[2] = target: HIV-1 Env of pseudovirus CNE53 (HIV-1)
[3] = target: HIV-1 Env of pseudovirus WEAU_d15_410_787 (HIV-1)
[4] = target: HIV-1 Env of pseudovirus HIV-0013095-2.11 (HIV-1)
[5] = target: HIV-1 Env of pseudovirus SC422661.8 (HIV-1)
[6] = target: HIV-1 Env of pseudovirus Du156.12 (HIV-1)
[7] = target: HIV-1 Env of pseudovirus 191955_A11 (HIV-1)
[8] = target: HIV-1 Env of pseudovirus T250-4 (HIV-1)
[9] = target: HIV-1 Env of pseudovirus 1012_11_TC21_3257 (HIV-1)
[10] = target: HIV-1 Env of pseudovirus TRO.11 (HIV-1)
[11] = target: HIV-1 Env of pseudovirus Q461.e2 (HIV-1)
[12] = target: HIV-1 Env of pseudovirus CNE19 (HIV-1)
[13] = target: HIV-1 Env of pseudovirus Ce1172_H1 (HIV-1)
[14] = target: HIV-1 Env of pseudovirus CNE52 (HIV-1)
[15] = target: HIV-1 Env of pseudovirus Ce2010_F5 (HIV-1)
[16] = target: HIV-1 Env of pseudovirus ZM109F.PB4 (HIV-1)
[17] = target: HIV-1 Env of pseudovirus ZM247v1(Rev-) (HIV-1)
[18] = target: HIV-1 Env of pseudovirus 0260.v5.c36 (HIV-1)
[19] = target: HIV-1 Env of pseudovirus AC10.0.29 (HIV-1)
[20] = target: HIV-1 Env of pseudovirus HIV-16845-2.22 (HIV-1)
[21] = target: HIV-1 Env of pseudovirus Ce1176_A3 (HIV-1)
[22] = target: HIV-1 Env of pseudovirus CNE17 (HIV-1)
[23] = target: HIV-1 Env of pseudovirus THRO4156.18 (HIV-1)
[24] = target: HIV-1 Env of pseudovirus CNE21 (HIV-1)

Substance: PG16 (antibody)
- IC50, titer in TZM.bl cells [1]: > 50 µg/mL
- IC80, titer in TZM.bl cells [1]: > 50 µg/mL
- IC50, titer in TZM.bl cells [2]: > 50 µg/mL
- IC80, titer in TZM.bl cells [2]: > 50 µg/mL
- IC50, titer in TZM.bl cells [3]: 0.435 µg/mL
- IC80, titer in TZM.bl cells [3]: > 50 µg/mL
- IC50, titer in TZM.bl cells [4]: 0.002 µg/mL
- IC80, titer in TZM.bl cells [4]: 0.006 µg/mL
- IC50, titer in TZM.bl cells [5]: 0.858 µg/mL
- IC80, titer in TZM.bl cells [5]: > 50 µg/mL
- IC50, titer in TZM.bl cells [6]: 0.006 µg/mL
- IC80, titer in TZM.bl cells [6]: 0.026 µg/mL
- IC50, titer in TZM.bl cells [7]: 0.009 µg/mL
- IC80, titer in TZM.bl cells [7]: 0.042 µg/mL
- IC50, titer in TZM.bl cells [8]: 0.002 µg/mL
- IC80, titer in TZM.bl cells [8]: 0.005 µg/mL
- IC50, titer in TZM.bl cells [9]: 0.03 µg/mL
- IC80, titer in TZM.bl cells [9]: 0.219 µg/mL
- IC50, titer in TZM.bl cells [10]: 1.92 µg/mL
- IC80, titer in TZM.bl cells [10]: 49.6 µg/mL
- IC50, titer in TZM.bl cells [11]: 1.75 µg/mL
- IC80, titer in TZM.bl cells [11]: > 50 µg/mL
- IC50, titer in TZM.bl cells [12]: 0.024 µg/mL
- IC80, titer in TZM.bl cells [12]: 3.07 µg/mL
- IC50, titer in TZM.bl cells [13]: 0.007 µg/mL
- IC80, titer in TZM.bl cells [13]: 0.037 µg/mL
- IC50, titer in TZM.bl cells [14]: 0.009 µg/mL
- IC80, titer in TZM.bl cells [14]: 0.026 µg/mL
- IC50, titer in TZM.bl cells [15]: > 50 µg/mL
- IC80, titer in TZM.bl cells [15]: > 50 µg/mL
- IC50, titer in TZM.bl cells [16]: 7.03 µg/mL
- IC80, titer in TZM.bl cells [16]: > 50 µg/mL
- IC50, titer in TZM.bl cells [17]: 0.016 µg/mL
- IC80, titer in TZM.bl cells [17]: 0.189 µg/mL
- IC50, titer in TZM.bl cells [18]: 1.54 µg/mL
- IC80, titer in TZM.bl cells [18]: 36.1 µg/mL
- IC50, titer in TZM.bl cells [19]: 0.023 µg/mL
- IC80, titer in TZM.bl cells [19]: 0.417 µg/mL
- IC50, titer in TZM.bl cells [20]: 3.13 µg/mL
- IC80, titer in TZM.bl cells [20]: > 50 µg/mL
- IC50, titer in TZM.bl cells [21]: 0.003 µg/mL
- IC80, titer in TZM.bl cells [21]: 0.011 µg/mL
- IC50, titer in TZM.bl cells [22]: 0.029 µg/mL
- IC80, titer in TZM.bl cells [22]: 0.132 µg/mL
- IC50, titer in TZM.bl cells [23]: 6.83 µg/mL
- IC80, titer in TZM.bl cells [23]: > 50 µg/mL
- IC50, titer in TZM.bl cells [24]: 0.007 µg/mL
- IC80, titer in TZM.bl cells [24]: 0.026 µg/mL

Substance: 10E8 (antibody)
- IC50, titer in TZM.bl cells [1]: 0.756 µg/mL
- IC80, titer in TZM.bl cells [1]: 5.59 µg/mL
- IC50, titer in TZM.bl cells [2]: 0.326 µg/mL
- IC80, titer in TZM.bl cells [2]: 1.92 µg/mL
- IC50, titer in TZM.bl cells [3]: > 10 µg/mL
- IC80, titer in TZM.bl cells [3]: > 10 µg/mL
- IC50, titer in TZM.bl cells [4]: 0.031 µg/mL
- IC80, titer in TZM.bl cells [4]: 0.213 µg/mL
- IC50, titer in TZM.bl cells [5]: 0.445 µg/mL
- IC80, titer in TZM.bl cells [5]: 2.71 µg/mL
- IC50, titer in TZM.bl cells [6]: 0.034 µg/mL
- IC80, titer in TZM.bl cells [6]: 0.144 µg/mL
- IC50, titer in TZM.bl cells [7]: 0.68 µg/mL
- IC80, titer in TZM.bl cells [7]: 3.53 µg/mL
- IC50, titer in TZM.bl cells [8]: 1.35 µg/mL
- IC80, titer in TZM.bl cells [8]: 8.13 µg/mL
- IC50, titer in TZM.bl cells [9]: 0.244 µg/mL
- IC80, titer in TZM.bl cells [9]: 4.21 µg/mL
- IC50, titer in TZM.bl cells [10]: 0.034 µg/mL
- IC80, titer in TZM.bl cells [10]: 0.25 µg/mL
- IC50, titer in TZM.bl cells [11]: 2.11 µg/mL
- IC80, titer in TZM.bl cells [11]: > 10 µg/mL
- IC50, titer in TZM.bl cells [12]: 0.666 µg/mL
- IC80, titer in TZM.bl cells [12]: 6.49 µg/mL
- IC50, titer in TZM.bl cells [13]: 0.722 µg/mL
- IC80, titer in TZM.bl cells [13]: 4.82 µg/mL
- IC50, titer in TZM.bl cells [14]: 0.304 µg/mL
- IC80, titer in TZM.bl cells [14]: 3.06 µg/mL
- IC50, titer in TZM.bl cells [15]: 1.84 µg/mL
- IC80, titer in TZM.bl cells [15]: 8.61 µg/mL
- IC50, titer in TZM.bl cells [16]: 0.295 µg/mL
- IC80, titer in TZM.bl cells [16]: 1.89 µg/mL
- IC50, titer in TZM.bl cells [17]: 0.506 µg/mL
- IC80, titer in TZM.bl cells [17]: 6.75 µg/mL
- IC50, titer in TZM.bl cells [18]: > 10 µg/mL
- IC80, titer in TZM.bl cells [18]: > 10 µg/mL
- IC50, titer in TZM.bl cells [19]: 0.132 µg/mL
- IC80, titer in TZM.bl cells [19]: 1.53 µg/mL
- IC50, titer in TZM.bl cells [20]: 0.068 µg/mL
- IC80, titer in TZM.bl cells [20]: 0.495 µg/mL
- IC50, titer in TZM.bl cells [21]: 0.867 µg/mL
- IC80, titer in TZM.bl cells [21]: 3.92 µg/mL
- IC50, titer in TZM.bl cells [22]: 1.11 µg/mL
- IC80, titer in TZM.bl cells [22]: 5.25 µg/mL
- IC50, titer in TZM.bl cells [23]: 0.156 µg/mL
- IC80, titer in TZM.bl cells [23]: 0.884 µg/mL
- IC50, titer in TZM.bl cells [24]: 1.9 µg/mL
- IC80, titer in TZM.bl cells [24]: > 10 µg/mL
